The star is where a group is joined. Myristoyl = CCCCCCCCCCCCCC(=O)*
Target: T1, Or83b (Drosophila melanogaster, UniProt Q9VNB5)
T1 sequence (Q9VNB5 1-486): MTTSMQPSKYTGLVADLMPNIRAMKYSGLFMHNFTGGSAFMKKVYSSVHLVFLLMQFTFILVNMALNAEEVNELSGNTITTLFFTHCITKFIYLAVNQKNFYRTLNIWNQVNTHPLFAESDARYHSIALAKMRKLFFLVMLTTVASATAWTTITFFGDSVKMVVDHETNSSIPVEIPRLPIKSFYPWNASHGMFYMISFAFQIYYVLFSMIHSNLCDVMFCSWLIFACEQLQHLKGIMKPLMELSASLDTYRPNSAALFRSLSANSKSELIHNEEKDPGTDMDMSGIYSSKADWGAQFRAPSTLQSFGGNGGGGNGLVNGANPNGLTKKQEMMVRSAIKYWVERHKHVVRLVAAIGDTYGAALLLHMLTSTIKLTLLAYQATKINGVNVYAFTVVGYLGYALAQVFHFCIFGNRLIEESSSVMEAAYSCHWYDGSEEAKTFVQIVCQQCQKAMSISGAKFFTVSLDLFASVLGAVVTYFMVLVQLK
Assay: Whole-cell patch-clamp of HEK293 cells expressing Or83b alone
Assay type: cell-based
Parameters: expressed in transfected cells; host or cells: HEK293
Conditions: 1 µM; n = 6
Experimental: HEK293 cells were cultured as described by Wicher and colleagues (Wicher et al., J. Biol. Chem. 281, 3227-36 (2006)). In brief, HEK293 cells were cultured at a density of ∼2*10^4 per 35-mm dish and transfected with 1 µg pcDNA3-DOR22a-GFP and 1 µg pcDNA3-DOR83b-GFP (Neuhaus, et al., Nat. Neurosci. 8, 15-17 (2005); DNAs were a generous gift of Dr. E. Neuhaus and Dr. H. Hatt) using Roti-Fect transfection kit (Roth, Karlsruhe, Germany). In some experiments we transfected cells with pcDNA3-DOR22a-GFP or pcDNA3-DOR83b-GFP alone. We also examined the properties of DOR47a, which was cloned, using standard molecular biology methods into a pcDNA3.1(-) expression vector. To test for putative G-protein coupling, cells were transfected with the respective OR-DNA together with 1.5 µg hHCN2/pcDNA3 (provided by M. Biel, Munich, Germany), with 1 µg hKCNQ4/pcDNA3.1 or with 1 µg hCNGA2/pCMV6-XL4 (Origene, Rockville, MD, USA).
Ion currents in HEK293 cells were measured with the patch-clamp technology as described (Wicher et al, J. Biol. Chem. 281, 3227-36 (2006)). In brief, ion currents in HEK293 cells were measured at room temperature using whole-cell patch-clamp with appropriate compensation of series resistance and of capacitive currents. Additional experiments were performed in the outside-out configuration. […]

Substance: myristoylated PKA inhibiting peptide 14-22 amide (Myristoyl-SGRTGRRNA-NH2; SMILES CCCCCCCCCCCCCC(=O)N[C@@H](CO)C(=O)NCC(=O)N[C@@H](CCCNC(=N)N)C(=O)N[C@H](C(=O)NCC(=O)N[C@@H](CCCNC(=N)N)C(=O)N[C@@H](CCCNC(=N)N)C(=O)N[C@@H](CC(N)=O)C(=O)N[C@@H](C)C(N)=O)[C@@H](C)O; UniProt P61925 14-22, looked up, fragment) [PKI1422]
- effect of preincubation on ion currents elicited by 8-bromo-cAMP: not significantly altered

From patent EP2108954A1, “A test system for detecting intracellular cyclic nucleotide level and methods and uses thereof” (Max-Planck-Gesellschaft zur Förderung der Wissenschaften …, priority 2008, dated 2009)
